Usually Kd stands for the concentration at which binding is half-saturated.

The values below come from paper PMC5443798, “Functional characterization of the meiosis-specific DNA double-strand break inducing factor SPO-11 from C. elegans”.

Data set [1] deals with T1, SPO-11 (Caenorhabditis elegans, UniProt Q22236 1-425).
T1 sequence: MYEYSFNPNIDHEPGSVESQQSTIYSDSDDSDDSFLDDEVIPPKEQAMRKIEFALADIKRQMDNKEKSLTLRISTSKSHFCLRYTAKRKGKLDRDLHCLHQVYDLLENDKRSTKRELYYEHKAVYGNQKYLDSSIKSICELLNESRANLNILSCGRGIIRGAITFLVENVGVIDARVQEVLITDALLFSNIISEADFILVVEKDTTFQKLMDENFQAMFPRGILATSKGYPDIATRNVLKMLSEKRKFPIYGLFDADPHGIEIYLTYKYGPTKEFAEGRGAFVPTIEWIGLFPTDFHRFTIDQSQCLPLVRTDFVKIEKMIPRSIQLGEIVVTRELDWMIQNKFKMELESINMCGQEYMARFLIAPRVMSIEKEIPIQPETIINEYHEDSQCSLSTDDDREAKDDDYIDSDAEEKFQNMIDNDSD
Nature of the data set: SPR; 20 C, steady-state affinity, no Mg2+; EMSA: 42.5 mM Tris-HCl pH 7.5, 115 mM KCl, 1 mM DTT, 0.1 mg/ml BSA, 3% glycerol, 0.15 mM EDTA, 20 C, 30 min, 300 nM DNA (10 nM plasmid), agarose gel; SPR: same. Particulars: protein: recombinant; tags: none (His6-SUMO removed by Ulp1); label: 5'-biotin; blunt.

In another data set the target is T2, SPO-11 G290D (Caenorhabditis elegans, UniProt Q22236 1-425, G290D).
T2 sequence: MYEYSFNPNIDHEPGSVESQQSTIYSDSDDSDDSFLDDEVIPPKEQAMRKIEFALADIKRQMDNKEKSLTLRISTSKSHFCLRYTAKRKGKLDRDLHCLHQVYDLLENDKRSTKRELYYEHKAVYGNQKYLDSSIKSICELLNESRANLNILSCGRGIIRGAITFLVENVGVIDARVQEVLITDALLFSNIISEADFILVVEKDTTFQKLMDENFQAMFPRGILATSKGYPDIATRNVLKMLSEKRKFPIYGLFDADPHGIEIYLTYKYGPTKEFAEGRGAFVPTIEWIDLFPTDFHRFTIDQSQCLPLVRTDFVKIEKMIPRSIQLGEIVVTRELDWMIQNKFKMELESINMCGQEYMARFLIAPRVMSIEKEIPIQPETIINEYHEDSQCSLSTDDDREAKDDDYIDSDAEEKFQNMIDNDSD
The data set can be described thus: EMSA; 20 C; EMSA: 42.5 mM Tris-HCl pH 7.5, 115 mM KCl, 1 mM DTT, 0.1 mg/ml BSA, 3% glycerol, 0.15 mM EDTA, 20 C, 30 min, 300 nM DNA (10 nM plasmid), agarose gel; SPR: same. Particulars: protein: recombinant; tags: none (His6-SUMO removed by Ulp1); blunt. (Mobility shift assays separate free from complexed probe on a gel.)

Data set [2] deals with T1, SPO-11. The data set can be described thus: EMSA; 20 C, no Mg2+; EMSA: 42.5 mM Tris-HCl pH 7.5, 115 mM KCl, 1 mM DTT, 0.1 mg/ml BSA, 3% glycerol, 0.15 mM EDTA, 20 C, 30 min, 300 nM DNA (10 nM plasmid), agarose gel; SPR: same. Particulars: protein: recombinant; tags: none (His6-SUMO removed by Ulp1); blunt.
A further data set has as its target T3, SPO-11 Y119F (Caenorhabditis elegans, UniProt Q22236 1-425, Y119F).
T3 sequence: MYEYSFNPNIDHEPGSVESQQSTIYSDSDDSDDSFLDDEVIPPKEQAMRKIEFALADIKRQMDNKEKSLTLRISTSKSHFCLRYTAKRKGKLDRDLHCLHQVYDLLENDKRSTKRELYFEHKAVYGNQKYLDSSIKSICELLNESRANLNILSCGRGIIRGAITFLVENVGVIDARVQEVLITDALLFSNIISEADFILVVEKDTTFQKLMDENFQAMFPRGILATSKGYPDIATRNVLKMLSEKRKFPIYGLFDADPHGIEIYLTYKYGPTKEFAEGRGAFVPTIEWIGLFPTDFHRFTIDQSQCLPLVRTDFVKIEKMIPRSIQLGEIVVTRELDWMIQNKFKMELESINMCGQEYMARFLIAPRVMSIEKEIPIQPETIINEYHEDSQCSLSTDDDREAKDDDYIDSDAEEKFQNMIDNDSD
The data set can be described thus: EMSA; as proficient as WT; EMSA: 42.5 mM Tris-HCl pH 7.5, 115 mM KCl, 1 mM DTT, 0.1 mg/ml BSA, 3% glycerol, 0.15 mM EDTA, 20 C, 30 min, 300 nM DNA (10 nM plasmid), agarose gel; SPR: same. The settings on record: protein: recombinant; tags: none (His6-SUMO removed by Ulp1); blunt.

The target in the next data set is T4, SPO-11 Y118F/Y119F (Caenorhabditis elegans, UniProt Q22236 1-425, Y118F;Y119F).
T4 sequence: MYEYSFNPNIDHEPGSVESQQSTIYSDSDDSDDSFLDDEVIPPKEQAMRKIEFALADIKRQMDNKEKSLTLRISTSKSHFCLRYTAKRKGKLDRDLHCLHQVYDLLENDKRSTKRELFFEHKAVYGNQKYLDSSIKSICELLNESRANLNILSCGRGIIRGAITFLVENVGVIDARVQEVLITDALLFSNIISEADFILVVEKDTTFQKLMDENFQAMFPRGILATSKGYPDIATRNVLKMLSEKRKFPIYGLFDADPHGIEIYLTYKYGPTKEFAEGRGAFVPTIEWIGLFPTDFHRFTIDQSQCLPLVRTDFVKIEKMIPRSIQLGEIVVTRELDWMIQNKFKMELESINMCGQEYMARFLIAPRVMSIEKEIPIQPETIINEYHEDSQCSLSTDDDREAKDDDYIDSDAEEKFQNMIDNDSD
The description is as above. Particulars: protein: recombinant; tags: none (His6-SUMO removed by Ulp1); blunt.

The next data set addresses T5, SPO-11 E202A/D255A (Caenorhabditis elegans, UniProt Q22236 1-425, E202A;D255A).
T5 sequence: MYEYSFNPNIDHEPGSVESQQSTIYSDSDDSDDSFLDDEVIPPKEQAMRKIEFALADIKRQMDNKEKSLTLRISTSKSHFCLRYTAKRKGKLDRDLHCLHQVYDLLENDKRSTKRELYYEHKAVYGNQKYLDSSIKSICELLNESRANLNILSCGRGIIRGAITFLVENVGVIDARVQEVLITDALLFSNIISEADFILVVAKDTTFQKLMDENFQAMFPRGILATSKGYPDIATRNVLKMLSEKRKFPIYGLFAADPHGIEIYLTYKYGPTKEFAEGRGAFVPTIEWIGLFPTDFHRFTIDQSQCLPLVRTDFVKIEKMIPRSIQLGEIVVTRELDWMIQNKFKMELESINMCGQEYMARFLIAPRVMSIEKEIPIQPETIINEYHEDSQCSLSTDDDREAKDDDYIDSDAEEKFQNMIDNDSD
Nature of the data set: EMSA; with Mg2+; as proficient as WT; EMSA: 42.5 mM Tris-HCl pH 7.5, 115 mM KCl, 1 mM DTT, 0.1 mg/ml BSA, 3% glycerol, 0.15 mM EDTA, 20 C, 30 min, 300 nM DNA (10 nM plasmid), agarose gel; SPR: same. Particulars: protein: recombinant; tags: none (His6-SUMO removed by Ulp1); blunt.

In another data set the target is T6, SPO-11 E202A (Caenorhabditis elegans, UniProt Q22236 1-425, E202A).
T6 sequence: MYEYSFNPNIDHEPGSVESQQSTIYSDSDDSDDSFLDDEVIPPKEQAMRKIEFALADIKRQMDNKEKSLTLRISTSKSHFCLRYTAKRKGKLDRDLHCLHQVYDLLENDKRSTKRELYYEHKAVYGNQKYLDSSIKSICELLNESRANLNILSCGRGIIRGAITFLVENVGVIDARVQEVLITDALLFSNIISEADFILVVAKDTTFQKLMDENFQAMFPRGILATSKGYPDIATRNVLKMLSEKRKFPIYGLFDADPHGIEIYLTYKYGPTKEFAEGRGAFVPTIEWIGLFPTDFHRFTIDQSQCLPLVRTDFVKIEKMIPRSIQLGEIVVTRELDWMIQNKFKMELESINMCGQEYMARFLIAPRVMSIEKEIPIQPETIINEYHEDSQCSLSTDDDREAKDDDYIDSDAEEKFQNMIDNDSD
The description is as above. Particulars: protein: recombinant; tags: none (His6-SUMO removed by Ulp1); blunt.

In data set [3] the target is T1, SPO-11. The data set can be described thus: EMSA; saturated at 4.8 uM SPO-11; EMSA: 42.5 mM Tris-HCl pH 7.5, 115 mM KCl, 1 mM DTT, 0.1 mg/ml BSA, 3% glycerol, 0.15 mM EDTA, 20 C, 30 min, 300 nM DNA (10 nM plasmid), agarose gel; SPR: same. Particulars: protein: recombinant; tags: none (His6-SUMO removed by Ulp1); blunt.
Data set [4] concerns the target T1, SPO-11. Nature of the data set: EMSA; 2.4 uM SPO-11, 300 nM DNA; EMSA: 42.5 mM Tris-HCl pH 7.5, 115 mM KCl, 1 mM DTT, 0.1 mg/ml BSA, 3% glycerol, 0.15 mM EDTA, 20 C, 30 min, 300 nM DNA (10 nM plasmid), agarose gel; SPR: same. The settings on record: protein: recombinant; tags: none (His6-SUMO removed by Ulp1); label: 3'-Cy5; blunt.

B1: 100 bp dsDNA, 5'-biotin (dsDNA)
DNA 1: AATATGATAGATAATGATAGTGATGAGGGACGTGGATCTCTTCTTACCTGCGGAGACGTCGAGGAGAACCCAGGACCAGGGGTACCTATGGCCTCCTCCG
DNA 2: CGGAGGAGGCCATAGGTACCCCTGGTCCTGGGTTCTCCTCGACGTCTCCGCAGGTAAGAAGAGATCCACGTCCCTCATCACTATCATTATCTATCATATT
modifications: 5'-biotin (strand not stated)
As for B1, the Kd with SPO-11 [1] was ~470 nM.

B2: 100 bp dsDNA (dsDNA)
DNA 1: AATATGATAGATAATGATAGTGATGAGGGACGTGGATCTCTTCTTACCTGCGGAGACGTCGAGGAGAACCCAGGACCAGGGGTACCTATGGCCTCCTCCG
DNA 2: CGGAGGAGGCCATAGGTACCCCTGGTCCTGGGTTCTCCTCGACGTCTCCGCAGGTAAGAAGAGATCCACGTCCCTCATCACTATCATTATCTATCATATT
For the molecule B2, the binding result with SPO-11 G290D was “no binding”; with SPO-11 [2], “binds”; with SPO-11 Y119F, “binds”; with SPO-11 Y118F/Y119F it was “binds”; with SPO-11 E202A/D255A, “binds”; with SPO-11 E202A, “binds”.

B3: 80 bp dsDNA (dsDNA)
DNA 1: TTATGTTCATTTTTTATATCCTTTACTTTATTTTCTCTGTTTATTCATTTACTTATTTTGTATTATCCTTATCTTATTTA
DNA 2: TAAATAAGATAAGGATAATACAAAATAAGTAAATGAATAAACAGAGAAAATAAAGTAAAGGATATAAAAAATGAACATAA
With B3, the binding result with SPO-11 [3] was “binds”.

B4: 80 bp dsDNA, Cy5 (dsDNA)
DNA 1: TTATGTTCATTTTTTATATCCTTTACTTTATTTTCTCTGTTTATTCATTTACTTATTTTGTATTATCCTTATCTTATTTA
DNA 2: TAAATAAGATAAGGATAATACAAAATAAGTAAATGAATAAACAGAGAAAATAAAGTAAAGGATATAAAAAATGAACATAA
modifications: 3'-Cy5 on strand 1
Consider B4, for which the binding result with SPO-11 [4] is “binds”.
